Laboratory results from patent US20150368301A1.
pKd: −log10 of the molar value.

Columns and labels:
[1] = molecular target: Phosphorylated Nox1 peptide (pNox1, KLKT*QKIYF); assay: ITC, phosphorylated versus unphosphorylated Nox1 peptide
[2] = molecular target: Phosphorylated Nox1 peptide (pNox1, KLKT*QKIYF); assay: ITC, pNox1 peptide injected into NoxA1 AD peptide, single site model, n=3, 25° C.
[3] = molecular target: Phosphorylated Nox1 peptide (pNox1, KLKT*QKIYF); assay: ITC, pNox1 peptide injected into NoxA1 AD peptide, single site model, n=3, 25° C.; phosphorylated Nox1 peptide (pNox1, T429)

“NoxA1 activation domain (AD) peptide (…)” gave a fold increase of association against the unphosphorylated Nox1 peptide [1] greater than 100 fold, a stoichiometry [2] of 0.86 and a pKd [3] of 5.82.
